From the RNAGym collection of RNA variant scans (doi:10.1093/nar/gkz1192) come the findings set out here.

The chains are these.
B1: CPEB3 Ribozyme (parent)
chain: UAACAGGGGGCCACAGCAGAAGCGUUCACGUCGCAGCCCCUGUCAGAUUCUGGUGAAUCUGCGAAUUCUGCUGUAUAUCUC

The variants in the data set derive from B1. Description: self-cleavage, relative activity (ratio to wild type); higher = more cleavage; in vitro, sequencing. The procedure, abridged:
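After error-prone PCR and barcoding, CPEB3 ribozyme mutant libraries were transcribed with T7 RNA polymerase at 37°C for 5 hours, then given 15 min with DNase I before an EDTA stop, and they cleaved during both steps. Reverse transcription with template switching preceded Illumina sequencing. Relative activity divides a variant's cleaved/total read fraction by the unmutated ribozyme's. At least 5 reads were required per variant, and three batches were averaged.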
In the case of U25G U78C, the self-cleavage was found to be 0.15. With U25G U78A the figure was 0.12. To U25C U60A belongs 0.24; to U25C U60C, 0.23; to U25C U60G, 0.13. To U25G A28U belongs 0.31; to U25G A28G, 0.37; to U25C G55C, 0.33. U25C G55A: the self-cleavage worked out at 0.28. With U25C G55U the figure was 0.21. With U26A the figure was 0.89; with U26A A65G, 0.38. As for U26A A65U, the self-cleavage stood at 0.35. To U25C C79U belongs 0.34; to U25C C79A, 0.35; to U25C C79G, 0.26.

On to U25C C39A, for which the self-cleavage turned out to be 0.23.

With U25C C39G, the self-cleavage came out at 0.15. With U25C C39U the figure was 0.2.

Regarding U25A U72G, the self-cleavage was determined as 0.06. With U25A U72C the figure was 0.22; with U25A U72A, 0.3; with U25G U43A, 0.58. To U25G U43C belongs 0.34; to U26A G42A, 0.29; to U26A C38U, 0.51. On to U26A C38A, for which the self-cleavage is 0.27.

For U25A U58G, the self-cleavage was determined as 0.1. As to U25A U58C, the self-cleavage is 0.29.

Take U25A U58A: the self-cleavage stood at 0.27. To U25A U78A belongs 0.19; to U25A U78C, 0.13; to U25A U78G, 0.37. With U25G A47U the figure was 0.32; with U25C U58A, 0.29. Regarding U25C U58G, the self-cleavage turned out to be 0.33. For the variant U25C U58C, the self-cleavage was found to be 0.26. With U25C U80C the figure was 0.35; with U25C U80A, 0.28; with U25G U60C, 0.24. To U25G U60A belongs 0.19; to U26A A77U, 1.03.

Turning to U26A A77G, the self-cleavage came to 0.91. U25C U41G: the self-cleavage was 0.27. To U25C U41A belongs 0.3; to U25C U41C, 0.28. With U26A G36U the figure was 0.39; with U25A U48C, 0.3; with U25A U48A, 0.32. To U25C U26C belongs 0.27; to U25C U26G, 0.31. For U25C U26A, the self-cleavage was 0.28.

In the case of U25C G53C, the self-cleavage worked out at 0.15.

For U25C G53A, the self-cleavage was 0.43. With U26A G61A the figure was 0.73. With U26A G61C the figure was 0.27; with U25A U43C, 0.28; with U25A U43A, 0.21. With U25C U54C the figure was 0.27. In the case of U25C U54A, the self-cleavage was 0.28.

In the case of U25C U54G, the self-cleavage was 0.31. With U25C U76A the figure was 0.33; with U25C U76C, 0.3; with U25C U76G, 0.45. To U26A C37G belongs 0.62; to U26A C37U, 0.5; to U25C C34G, 0.27. To U25C C34U belongs 0.25; to U26A C68A, 0.31; to U26A C68U, 0.79. As to U26A A47G, the self-cleavage was 0.84.

As to U26A A47U, the self-cleavage stood at 0.58. Regarding U25C G30C, the self-cleavage was 0.26.

As for U25C G30U, the self-cleavage worked out at 0.16. To U25C G30A belongs 0.33; to U25G U58A, 0.14. Turning to U25G U58C, the self-cleavage is 0.2. With U25G C59U the figure was 0.21. With U25G A45G the figure was 0.29.

As to U25C C37A, the self-cleavage amounted to 0.46.

Take U25C C37U: the self-cleavage came out at 0.19. With U25G A65G the figure was 0.26. To U25G A65U belongs 0.07. Regarding U25C A77G, the self-cleavage came out at 0.27. With U25C A77C, the self-cleavage was found to be 0.3. With U25C A77U the figure was 0.26; with U25G C50U, 0.14; with U25C A47U, 0.23. With U25C A47G the figure was 0.27; with U26A G52C, 1.

As for U26A G52A, the self-cleavage came out at 1.06.

In the case of U26A G52U, the self-cleavage was 1.08. To U25C G46U belongs 0.2. With U25C G46C, the self-cleavage worked out at 0. With U25C G46A the figure was 0.28; with U25A U54A, 0.26.

In the case of U25A U54C, the self-cleavage amounted to 0.27.

For U25A U54G, the self-cleavage was 0.2. To U25A G61A belongs 0.23; to U25A G61U, 0.18; to U25C C44U, 0.23. To U25G G52A belongs 0.15; to U25G U72C, 0.26. U25G U72A: the self-cleavage came out at 0.21. With U25A G42U the figure was 0.28; with U25A G42A, 0.2. To U26A C50U belongs 0.47; to U26A C50A, 0.76; to U25A U80A, 0.45.

Consider U25A U80C, for which the self-cleavage worked out at 0.33.

For the variant U25A U80G, the self-cleavage turned out to be 0.22. Consider U25A U31A, for which the self-cleavage amounted to 0.16.

With U25A U31C, the self-cleavage came to 0.17. U25C C50G: the self-cleavage worked out at 0.37. To U25C C50A belongs 0.09. With U25C C50U, the self-cleavage was 0.27. To U26A G53A belongs 1; to U26A G53U, 1.04; to U26A A75U, 0.9.

Regarding U26A A75G, the self-cleavage came out at 0.69. With U25G U41G the figure was 0.43.

Turning to U25G U41C, the self-cleavage worked out at 0.4. With U25G U41A the figure was 0.19; with U25G A35G, 0.9. To U25G A35U belongs 0.39; to U25A U66C, 0.23; to U25A U66A, 0.31. With U25C U49A the figure was 0.3. For the variant U25C U49C, the self-cleavage was determined as 0.21.

On to U25A G73A, for which the self-cleavage was 0.36. Regarding U25C U31G, the self-cleavage amounted to 0.23. As to U25C U31C, the self-cleavage was determined as 0.23. To U25C U31A belongs 0.25.

Regarding U25A U51C, the self-cleavage was 0.23. Turning to U25A U51A, the self-cleavage came to 0.33. To U25G U76C belongs 0.52. To U25G A77U belongs 0.25; to U25G U51C, 0.4; to U25G U51A, 0.3.

U25A U74A: the self-cleavage is 0.25. With U25A U74C the figure was 0.33; with U25C C81A, 0.23; with U25C C81G, 0.22. To U25C C81U belongs 0.15. With U25C U67A the figure was 0.25; with U25C U67G, 0.11. U25C U67C: the self-cleavage stood at 0.2. With U25G A64G the figure was 0.24.

Regarding U25G A64U, the self-cleavage was 0.23. For U25C C40A, the self-cleavage was found to be 0.15. In the case of U25C C40U, the self-cleavage amounted to 0.19. To U26A C39U belongs 0.56; to U25G U54A, 0.49. To U25G U54C belongs 0.43; to U26A A64G, 0.61; to U26A A64U, 0.27. With U26A A64C the figure was 0.5; with U25A U76A, 0.25; with U25A U76C, 0.32. For U26A A28G, the self-cleavage was 0.38. Consider U26A A28U, for which the self-cleavage turned out to be 0.61. To U25A G30C belongs 0.26.

Regarding U25G C39U, the self-cleavage came to 0.3.

U25C G36U: the self-cleavage amounted to 0.16. To U25C G36A belongs 0.17. With U25C A57U the figure was 0.31; with U25C A57G, 0.28.
